Values of other authors as cited in PMC3345106.

Target: Cys34 (UniProt position 58, QYLQQCPFEDH)
Details: HSA thiol in earlier reports, compared by the authors with their FA-free value

Human serum albumin (HSA) (Homo sapiens)
pKa: ~8
